Assay results reported in patent US10428140B2, “Anti-EphA4 antibody” (EISAI R&D MANAGEMENT CO., LTD., priority 2015, dated 2019).

T1: human EphB3 (Homo sapiens, UniProt P54753)
T1 construct: a protein of the extracellular region of each human Eph receptor fused with the SEAP protein and the His tag; made in house; host or cells: Expi293F cells
T1 sequence (P54753 34-559 limits assumed): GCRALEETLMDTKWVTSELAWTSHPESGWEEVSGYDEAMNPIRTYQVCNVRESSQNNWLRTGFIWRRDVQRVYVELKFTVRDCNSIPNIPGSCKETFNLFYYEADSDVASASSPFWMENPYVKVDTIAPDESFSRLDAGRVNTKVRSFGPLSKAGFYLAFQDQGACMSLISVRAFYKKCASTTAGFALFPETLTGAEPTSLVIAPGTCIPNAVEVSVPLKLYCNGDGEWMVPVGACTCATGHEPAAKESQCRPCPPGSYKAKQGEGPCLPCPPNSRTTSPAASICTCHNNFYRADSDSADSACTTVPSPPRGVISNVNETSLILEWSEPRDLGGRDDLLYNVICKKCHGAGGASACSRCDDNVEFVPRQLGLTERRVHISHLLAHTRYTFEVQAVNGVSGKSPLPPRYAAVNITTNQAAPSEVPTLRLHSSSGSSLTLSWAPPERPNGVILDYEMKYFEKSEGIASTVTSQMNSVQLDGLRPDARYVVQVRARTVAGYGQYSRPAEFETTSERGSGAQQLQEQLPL

T2: human EphB2 (Homo sapiens, UniProt P29323)
T2 construct: a protein of the extracellular region of each human Eph receptor fused with the SEAP protein and the His tag; made in house; host or cells: Expi293F cells
T2 sequence (P29323 19-543 limits assumed): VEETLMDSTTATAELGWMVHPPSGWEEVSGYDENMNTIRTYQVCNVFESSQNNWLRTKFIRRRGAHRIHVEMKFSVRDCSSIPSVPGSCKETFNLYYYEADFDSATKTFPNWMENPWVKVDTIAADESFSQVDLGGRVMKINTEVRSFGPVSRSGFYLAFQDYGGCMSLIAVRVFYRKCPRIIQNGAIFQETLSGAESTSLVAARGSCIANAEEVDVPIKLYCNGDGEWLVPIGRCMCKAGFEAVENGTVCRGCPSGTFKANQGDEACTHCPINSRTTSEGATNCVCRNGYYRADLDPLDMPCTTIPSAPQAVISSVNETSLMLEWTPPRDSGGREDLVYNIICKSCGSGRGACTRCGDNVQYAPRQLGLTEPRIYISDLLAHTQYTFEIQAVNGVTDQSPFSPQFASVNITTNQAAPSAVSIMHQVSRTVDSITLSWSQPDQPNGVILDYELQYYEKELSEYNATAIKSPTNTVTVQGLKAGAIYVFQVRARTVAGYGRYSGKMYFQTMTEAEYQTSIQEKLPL

B1: 69 (antibody, V domains shown)
VH: QIQLVQSGSELKKPGASVKVSCKASGYTFTDYSMHWVRQAPGQGLKWMGWINTETGEPTYADDFKGRFVFSLDTSVSTAYLQISSLKAEDTAVYYCARIPLYYYGSRYWYFDVWGQGTTVTVSS
VL: DIQMTQSPSSLSASVGDRVTITCRASENIYRNLAWYQQKPGKAPKLLVYAATNLADGVPSRFSGSGSGTDYTLTISSLQPEDFATYYCQHFWGTPWTFGQGTKVEIK
modifications: synthetic humanized antibody heavy chain variable region sequence; synthetic humanized antibody light chain variable region sequence
B2: 82 (antibody, V domains shown)
VL: DIQMTQSPSSLSASVGDRVTITCRASENIYRNLAWYQQKPGKAPKLLLYAATNLADGVPSRFSGSGSGTDYTLTISSLQSEDFATYYCQHFWGTPWTFGQGTKVEIK
VH: QVQLVQSGSELKKPGASVKVSCKASGYTFTDYSMHWVRQAPGQGLKWMGWINTETGEPTYAQGFTGRFVFSLDTSVSTAYLQISSLKAEDTAVYYCARIPLYYYGSRYWYFDVWGQGTTVTVSS
modifications: constant regions without entry; synthetic humanized antibody light chain variable region sequence; synthetic humanized antibody heavy chain variable region sequence
B3: 85 (antibody, V domains shown)
VL: DIQMTQSPSSLSASVGDRVTITCRASENIYRNLAWYQQKPGKAPKLLLYAATNLADGVPSRFSGSGSGTDYTLTISSLQSEDFATYYCQHFWGTPWTFGQGTKVEIK
VH: QVQLVQSGSELKKPGASVKVSCKASGYTFTDYSMHWVRQAPGQGLKWMGWINTETGEPTYADDFKGRFVFSLDTSVSTAYLQISSLKAEDTAVYYCARIPLYYYGSRYWYFDVWGQGTTVTVSS
modifications: constant regions without entry; synthetic humanized antibody light chain variable region sequence; synthetic humanized antibody heavy chain variable region sequence
B4: 83 (antibody, V domains shown)
VL: DIQMTQSPSSLSASVGDRVTITCRASENIYRNLAWYQQKPGKAPKLLLYAATNLADGVPSRFSGSGSGTDYTLTISSLQSEDFATYYCQHFWGTPWTFGQGTKVEIK
VH: QIQLVQSGSELKKPGASVKVSCKASGYTFTDYSMHWVRQAPGQGLKWMGWINTETGEPTYAQGFTGRFVFSLDTSVSTAYLQISSLKAEDTAVYYCARIPLYYYGSRYWYFDVWGQGTTVTVSS
modifications: constant regions without entry; synthetic humanized antibody light chain variable region sequence; synthetic humanized antibody heavy chain variable region sequence
B5: 86 (antibody, V domains shown)
VL: DIQMTQSPSSLSASVGDRVTITCRASENIYRNLAWYQQKPGKAPKLLLYAATNLADGVPSRFSGSGSGTDYTLTISSLQSEDFATYYCQHFWGTPWTFGQGTKVEIK
VH: QIQLVQSGSELKKPGASVKVSCKASGYTFTDYSMHWVRQAPGQGLKWMGWINTETGEPTYADDFKGRFVFSLDTSVSTAYLQISSLKAEDTAVYYCARIPLYYYGSRYWYFDVWGQGTTVTVSS
modifications: constant regions without entry; synthetic humanized antibody light chain variable region sequence; synthetic humanized antibody heavy chain variable region sequence
B6: 84 (antibody, V domains shown)
VL: DIQMTQSPSSLSASVGDRVTITCRASENIYRNLAWYQQKPGKAPKLLLYAATNLADGVPSRFSGSGSGTDYTLTISSLQSEDFATYYCQHFWGTPWTFGQGTKVEIK
VH: QVQLVQSGSELKKPGASVKVSCKASGYTFTDYSMHWVRQAPGQGLEWMGWINTETGEPTYADDFKGRFVFSLDTSVSTAYLQISSLKAEDTAVYYCARIPLYYYGSRYWYFDVWGQGTTVTVSS
modifications: constant regions without entry; synthetic humanized antibody light chain variable region sequence; synthetic humanized antibody heavy chain variable region sequence
B7: 81 (antibody, V domains shown)
VL: DIQMTQSPSSLSASVGDRVTITCRASENIYRNLAWYQQKPGKAPKLLLYAATNLADGVPSRFSGSGSGTDYTLTISSLQSEDFATYYCQHFWGTPWTFGQGTKVEIK
VH: QVQLVQSGSELKKPGASVKVSCKASGYTFTDYSMHWVRQAPGQGLEWMGWINTETGEPTYAQGFTGRFVFSLDTSVSTAYLQISSLKAEDTAVYYCARIPLYYYGSRYWYFDVWGQGTTVTVSS
modifications: constant regions without entry; synthetic humanized antibody light chain variable region sequence; synthetic humanized antibody heavy chain variable region sequence

Assays:
Assay in all cases: Selectivity ELISA of humanized antibodies for human Eph receptor
Format in all cases: binding
Conditions in all cases: coated protein 1 nM
[1] = target: SEAP-His (Homo sapiens, UniProt P05187)
Method in brief: (§1)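 His-tagged SEAP fusions of each human Eph receptor extracellular region, from Expi293F supernatants, were captured at 1 nM on anti-His-coated wells. Humanized antibody was bound 1 h at room temperature, then detected with HRP […] IgG. TMB development was acid-stopped and read at 450 nm.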

[2] = target: T1, human EphB3
Method in brief: as §1

[3] = target: T3, human EphA5 (Homo sapiens, UniProt P54756)
T3 construct: a protein of the extracellular region of each human Eph receptor fused with the SEAP protein and the His tag; made in house; host or cells: Expi293F cells (culture supernatant)
Method in brief: as §1

[4] = target: T2, human EphB2
Method in brief: as §1

[5] = target: T4, human EphA2 (Homo sapiens, UniProt P29317)
T4 construct: a protein of the extracellular region of each human Eph receptor fused with the SEAP protein and the His tag; made in house; host or cells: Expi293F cells (culture supernatant)
Method in brief: as §1

T3 sequence (P54756 25-573 limits assumed): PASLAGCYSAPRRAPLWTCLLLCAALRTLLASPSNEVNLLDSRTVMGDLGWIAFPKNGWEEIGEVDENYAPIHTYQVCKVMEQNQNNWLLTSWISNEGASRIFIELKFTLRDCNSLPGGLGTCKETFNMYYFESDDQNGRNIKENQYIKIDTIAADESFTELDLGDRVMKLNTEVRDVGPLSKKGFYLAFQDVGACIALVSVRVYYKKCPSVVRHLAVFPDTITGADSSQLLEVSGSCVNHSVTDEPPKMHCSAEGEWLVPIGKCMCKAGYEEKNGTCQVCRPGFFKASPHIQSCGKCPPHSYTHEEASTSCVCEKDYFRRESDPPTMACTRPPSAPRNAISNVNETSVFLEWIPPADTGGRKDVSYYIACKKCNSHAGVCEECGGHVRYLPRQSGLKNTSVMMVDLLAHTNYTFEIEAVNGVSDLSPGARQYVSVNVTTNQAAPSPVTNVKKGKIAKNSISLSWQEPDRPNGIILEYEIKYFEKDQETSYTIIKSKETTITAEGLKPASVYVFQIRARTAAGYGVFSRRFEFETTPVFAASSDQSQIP
SEAP-His, sequence (P05187 23-511 limits assumed): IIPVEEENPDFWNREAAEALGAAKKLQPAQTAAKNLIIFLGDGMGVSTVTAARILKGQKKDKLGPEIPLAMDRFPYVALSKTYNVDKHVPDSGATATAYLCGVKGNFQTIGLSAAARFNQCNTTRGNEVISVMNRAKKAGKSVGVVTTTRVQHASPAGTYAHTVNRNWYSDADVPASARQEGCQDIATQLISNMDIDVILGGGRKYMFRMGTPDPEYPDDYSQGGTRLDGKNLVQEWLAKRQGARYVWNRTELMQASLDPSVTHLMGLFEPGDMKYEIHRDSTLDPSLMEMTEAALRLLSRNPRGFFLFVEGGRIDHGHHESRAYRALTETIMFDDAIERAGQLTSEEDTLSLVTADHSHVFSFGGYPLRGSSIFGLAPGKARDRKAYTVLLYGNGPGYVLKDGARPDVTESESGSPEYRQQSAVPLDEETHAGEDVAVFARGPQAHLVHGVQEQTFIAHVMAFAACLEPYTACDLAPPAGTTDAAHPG
T4 sequence (P29317 24-537 limits assumed): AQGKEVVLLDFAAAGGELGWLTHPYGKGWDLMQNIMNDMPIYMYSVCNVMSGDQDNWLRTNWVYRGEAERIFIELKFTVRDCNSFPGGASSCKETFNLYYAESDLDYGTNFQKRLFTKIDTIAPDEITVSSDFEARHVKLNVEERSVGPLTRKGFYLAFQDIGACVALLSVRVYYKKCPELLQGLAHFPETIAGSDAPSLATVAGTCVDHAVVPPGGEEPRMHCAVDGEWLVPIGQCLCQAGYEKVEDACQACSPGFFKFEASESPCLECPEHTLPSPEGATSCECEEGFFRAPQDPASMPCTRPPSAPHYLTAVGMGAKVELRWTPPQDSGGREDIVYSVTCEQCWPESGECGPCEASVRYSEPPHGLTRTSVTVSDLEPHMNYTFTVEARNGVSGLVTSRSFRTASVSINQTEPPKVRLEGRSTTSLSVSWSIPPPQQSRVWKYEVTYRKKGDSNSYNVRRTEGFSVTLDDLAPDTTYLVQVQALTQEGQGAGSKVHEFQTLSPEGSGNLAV

| Molecule | SEAP-His: absorbance at 450 nm, percentage with respect to hEphA4-SEAP-His as 100% [1] | hEphB3-SEAP-: absorbance at 450 nm, percentage with respect to hEphA4-SEAP-His as 100% [2] | hEphA5-SEAP-: absorbance at 450 nm, percentage with respect to hEphA4-SEAP-His as 100% [3] | hEphB2-SEAP-: absorbance at 450 nm, percentage with respect to hEphA4-SEAP-His as 100% [4] | hEphA2-SEAP-: absorbance at 450 nm, percentage with respect to hEphA4-SEAP-His as 100% [5] |
| --- | --- | --- | --- | --- | --- |
| B1 | 6.1% | 5.9% | 5.6% | 5.5% | 5.5% |
| B2 | 5.9% | 5.6% | 6.5% | 5.6% | 5.4% |
| B3 | 5.3% | 5.2% | 5.0% | 5.1% | 5.1% |
| B4 | 6.5% | 5.7% | 5.8% | 5.6% | 5.8% |
| B5 | 6.1% | 5.9% | 5.7% | 5.7% | 5.7% |
| B6 | 5.1% | 4.8% | 5.0% | 4.9% | 4.9% |
| B7 | 5.0% | 4.9% | 4.9% | 5.0% | 4.8% |
